Laboratory results: US11912794B2, “Modulation of structured polypeptide specificity” (BicycleRD Limited, priority 2011, dated 2024)
Numbered stars: 1 amine (or outer) side, 2 acyl side, 3 side chain; on linkers, the order of the positions; unused ones are H or OH. Bridge positions count the residues as written; N and C are the ends. Square brackets hold non-standard residues; d marks the D form. Ends that are not written are not given here. Peptide text beside a SMILES is read from it. Bip = N[C@@H](Cc1ccc(-c2ccccc2)cc1)C(=O)O; TBMB = c1c(C[*:1])cc(C[*:3])cc1C[*:2]; Pip = O=C(O)[C@@H]1CCCCN1

Columns and labels:
[1] = Plasma stability profiling method 1 (35% plasma, MALDI-TOF, qualitative); format: in vitro ADME, rat; conditions: 35% rat plasma, 37 deg C, method 1, comparative estimate
Experimental: Three methods were employed to assess the stability of bicycles (peptides conjugated to molecular scaffolds) in plasma.
A rapid plasma stability profiling assay was developed that employed mass spectrometric detection (MALDI-TOF, Voyager DE, Applied Biosystems) of the parent mass, until the time when the parent peptide mass was no longer observable. Specifically, 200 uM of peptide was incubated in the presence of 35% rat or human plasma (Sera labs, using citrate as anticoagulant) at 37 deg C., which was supplemented with 1×PBS (derived from a 10×PBS Stock, Sigma). At various time points (i.e. t=0, 3, 24 hrs, henceafter daily up to 10 days), 2 uL of sample was added to 18 uL of 30 mM ammonium bicarbonate in a 1:1 mixture of acetonitrile:H2O. Samples were frozen at −80 deg C. until the time of analysis. For mass spectrometric analysis that determines the approximate detection window of the peptide, the acetonitrile:H2O-diluted sample of a given time point was spotted directly (0.7 uL) onto the MALDI plate. Matrix (alpha-cyanocinnamic acid, Sigma, prepared as a saturated solution in 1:1 acetonitrile:water containing 0.1% trifluoroacetic acid) was layered over the sample (1 uL). At a similar laser intensity setting on the MALDI TOF, the time could then be determined until parent peptide was no longer detectable. It should be noted that this is a qualitative assay serves to detect relative changes in plasma stability.

[2] = target: biotinylated human plasma Kallikrein (Homo sapiens, UniProt P03952); test: Phage binding assay of individual clones, randomisation of peptide domains
From the text: Library construction: Small phage libraries were generated according to the methods of Heinis et al as described in ‘Cloning of phage libraries’ above. The sficx3ba primer was modified such that the bicycle-encoding portion was based on a parent 5×5 bicycle (5×5: two 5-residue loops) DNA sequence with only 4-6 codons randomized to NNS. The randomized codons were those encoding the peptide domain/motif of interest.
Assay of binding of individual clones: Library transformant colonies, or selection output colonies, were picked and grown as individual cultures in 2TY broth containing selective antibiotic. The picked colonies were DNA-sequenced using a QIAgen PyroMark Q96 DNA sequencer to reveal the amino-acid substitution present in each clone, and were assayed for human plasma Kallikrein binding as follows. The phage-containing supernatant was harvested from the culture and phage were cyclised with tris bromomethyl benzene(TBMB) based on the methods of Heinis et al (Nature Chemical Biology vol. 5 pp 502-507 (2009)). The purified phage from this process were assayed for binding to biotinylated human plasma Kallikrein using a homogeneous plate-based binding assay; assay read-out measured on a BMG Labtech Pherastar FS plate reader. The quantitative binding data from duplicate assay samples was averaged (mean) and expressed as signal:background. Assay data shown is representative of at least 2 independent experiments. The assay data was correlated with the peptide sequences.
(§1) The WPAR (SEQ ID NO: 18) motif identified from Example 1 was analysed in the context of the 06-34-03 peptide, in order to identify alternatives or improvements to the WPAR (SEQ ID NO: 18) motif. A library was constructed where positions 1, 6, 7, 8, 9 &10 of 06-34-03 were fixed and positions 2, 3, 4 & 5 were randomised (see ‘Randomisation of peptide domains—Library construction’ in Methods above). Selections against human plasma Kallikrein were performed at a variety of stringencies (see Phage selections' in Methods above). All output sequences were identified and analysed for target binding (see ‘Randomisation of peptide domains—Assay of binding of individual clones’ in Methods above). Table 17 lists each unique sequence, its relative abundance in the selection output (frequency), and a rank number according to target binding strength.
Selections against human plasma Kallikrein were performed with this library in order to study the non-WPAR (SEQ ID NO: 18) determinants of Kallikrein binding, and to isolate the optimal WPAR (SEQ ID NO: 18)-containing peptide sequence. Over 150 selection output sequences were isolated and screened for binding to human plasma Kallikrein (as described in Methods above). The sequences were ranked in order of Kallikrein binding and the top 50 sequences were aligned in Table 19. […]

Biotinylated hPK = target: T1, Biotinylated hPK (Homo sapiens, UniProt P03952); test: Phage selections, abundance of sequences in selection outputs; format: binding; conditions: for Frequency (relative abundance in the total selection outputs): randomised WPAR motif at positions 2, 3, 4 & 5 within the 06-34-03 sequence
T1 construct: IHPKA, from human plasma; purchased Innovative Research, Novi, MI, USA IHPKA; host or cells: human plasma
Experimental: Glycerol stocks of phage libraries were diluted to OD600=0.1 in 500 ml 2YT/chloramphenicol (30 μg/ml) cultures and phage were produced at 30° C. over night (15-16 hrs). Phage were purified and chemically modified as described in Heinis, et al., Nat Chem Biol 2009, 5 (7), 502-7 Biotinylated hPK (3 μg) (IHPKA, from human plasma, Innovative Research, Novi, MI, USA) was incubated with 50 μl pre-washed magnetic streptavidin beads (Dynal, M-280 from Invitrogen, Paisley, UK) for 10 minutes at RT. […] Blocked beads were then mixed with the blocked chemically modified phage and incubated for 30 minutes on a rotating wheel at RT. Beads were washed 8 times with washing buffer containing 0.1% Tween 20 and twice with washing buffer before incubation with 100 μl of 50 mM glycine, pH 2.2 for 5 minutes. Eluted phage were transferred to 50 μl of 1 M Tris-Cl, pH 8 for neutralization, incubated with 30 ml TG1 cells at OD600=0.4 for 90 minutes at 37° C. and the cells were plated on large 2YT/chloramphenicol plates. One or two additional rounds of panning were performed using the same procedures. In the second round of selection, neutravidin-coated magnetic beads were used to prevent the enrichment of streptavidin-specific peptides. The neutravidin beads were prepared by reacting 0.8 mg neutravidin (Pierce, Rockford, IL, USA) with 0.5 ml tosyl-activated magnetic beads (Dynal, M-280 from Invitrogen, Paisley, UK) according to the supplier's instructions.
as §1

[3] = randomised WPAR motif at positions 2, 3, 4 & 5 within the 06-34-03 sequence, 1 = best binding
[4] = WPAR domain fixed, positions 1, 6, 7, 8, 9 & 10 randomised, top 50

T1 sequence (P03952 20-638): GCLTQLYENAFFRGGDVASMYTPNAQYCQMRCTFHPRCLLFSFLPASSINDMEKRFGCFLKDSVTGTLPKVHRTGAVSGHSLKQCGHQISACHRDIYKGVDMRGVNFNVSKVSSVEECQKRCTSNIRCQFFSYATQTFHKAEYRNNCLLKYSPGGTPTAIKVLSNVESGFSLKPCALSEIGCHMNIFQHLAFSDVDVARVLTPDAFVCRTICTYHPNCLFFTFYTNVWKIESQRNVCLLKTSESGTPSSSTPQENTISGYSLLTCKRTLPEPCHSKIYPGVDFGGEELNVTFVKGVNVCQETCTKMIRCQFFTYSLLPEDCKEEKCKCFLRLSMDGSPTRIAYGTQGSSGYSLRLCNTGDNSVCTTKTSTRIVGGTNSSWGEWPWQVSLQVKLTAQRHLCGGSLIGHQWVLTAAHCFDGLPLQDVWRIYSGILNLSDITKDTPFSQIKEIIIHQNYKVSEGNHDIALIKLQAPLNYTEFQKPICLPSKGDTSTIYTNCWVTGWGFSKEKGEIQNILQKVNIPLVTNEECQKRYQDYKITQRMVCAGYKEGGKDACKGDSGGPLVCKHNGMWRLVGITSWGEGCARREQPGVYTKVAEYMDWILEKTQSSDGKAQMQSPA
biotinylated human plasma Kallikrein, sequence (P03952 20-638): as above

Row | Molecule | Rank (sequences ranked according to Kallikrein binding) [2, 3] | Frequency (relative abundance in the total selection outputs) (Biotinylated hPK) | Rank (sequences ranked according to Kallikrein binding) [2, 4] | other results
1 | CC(=O)N[C@H]1CSCc2cc3cc(c2)CSC[C@H](NC(=O)[C@H](CCCNC(=N)N)NC(=O)[C@H](C)NC(=O)[C@@H]2CCCCN2C(=O)[C@H](Cc2c[nH]c4ccccc24)NC(=O)[C@H](CO)NC1=O)C(=O)N[C@@H](CC(C)C)C(=O)N[C@@H](Cc1c[nH]cn1)C(=O)N[C@@H](CCC(N)=O)C(=O)N[C@@H](CC(=O)O)C(=O)N[C@@H](CC(C)C)C(=O)N[C@H](C(N)=O)CSC3 [Ac-(06-34-18) Pip3] (Ac-CSW[Pip]ARCLHQDLC-NH2; linker 1-7-13 via TBMB) |  |  |  | Observable in rat plasma, for days [1]: 2 days
2 | SEQ ID NO: 92 (CSLPFKCTHQDLC; Synthetic sequence Kallikrein binder identified from selections using a randomised WPAR motif at positions 2, 3, 4 & 5 within the 06-34-03 sequence of PCT/EP2012/069898 (SEQ ID NO 58)) | 20 | 1 |  | 
3 | SEQ ID NO: 89 (CSLPFRCTHQDLC; Synthetic sequence Kallikrein binder identified from selections using a randomised WPAR motif at positions 2, 3, 4 & 5 within the 06-34-03 sequence of PCT/EP2012/069898 (SEQ ID NO 58)) | 17 | 4 |  | 
4 | SEQ ID NO: 88 (CSLPFKCTHQDLC; Synthetic sequence Kallikrein binder identified from selections using a randomised WPAR motif at positions 2, 3, 4 & 5 within the 06-34-03 sequence of PCT/EP2012/069898 (SEQ ID NO 58)) | 16 | 1 |  | 
5 | SEQ ID NO: 85 (CSLPFRCTHQDLC; Synthetic sequence Kallikrein binder identified from selections using a randomised WPAR motif at positions 2, 3, 4 & 5 within the 06-34-03 sequence of PCT/EP2012/069898 (SEQ ID NO 58)) | 13 | 3 |  | 
6 | SEQ ID NO: 75 (CSFPFRCTHQDLC; Synthetic sequence Kallikrein binder identified from selections using a randomised WPAR motif at positions 2, 3, 4 & 5 within the 06-34-03 sequence of PCT/EP2012/069898 (SEQ ID NO 58)) | 3 | 17 |  | 
7 | SEQ ID NO: 97 (CSLPFRCTHQDLC; Synthetic sequence Kallikrein binder identified from selections using a randomised WPAR motif at positions 2, 3, 4 & 5 within the 06-34-03 sequence of PCT/EP2012/069898 (SEQ ID NO 58)) | 25 | 2 |  | 
8 | CC(=O)N[C@H]1CSCc2cc3cc(c2)CSC[C@H](NC(=O)[C@H](CCCNC(=N)N)NC(=O)[C@H](C)NC(=O)[C@@H]2CCCN2C(=O)[C@H](Cc2ccc(-c4ccccc4)cc2)NC(=O)[C@H](CO)NC1=O)C(=O)N[C@@H](CC(C)C)C(=O)N[C@@H](Cc1c[nH]cn1)C(=O)N[C@@H](CCC(N)=O)C(=O)N[C@@H](CC(=O)O)C(=O)N[C@@H](CC(C)C)C(=O)N[C@H](C(N)=O)CSC3 [Ac-(06-34-18) 4,4,BPal2] (Ac-CS[Bip]PARCLHQDLC-NH2; linker 1-7-13 via TBMB) |  |  |  | Observable in rat plasma, for days [1]: 2 days
9 | SEQ ID NO: 84 (CSFPFRCTHQDLC; Synthetic sequence Kallikrein binder identified from selections using a randomised WPAR motif at positions 2, 3, 4 & 5 within the 06-34-03 sequence of PCT/EP2012/069898 (SEQ ID NO 58)) | 12 | 2 |  | 
10 | WPAR: phage clone: WPAR at positions 2-5 within the 06-34-03 sequence, TBMB-cyclised (also: TBMB-cyclised within the 06-34-03 context, the cysteines lie outside this motif) |  |  |  | Kallikrein binding in target binding assay [2]: optimal sequence for Kallikrein binding; Relative abundance of motif in selection output (Biotinylated hPK; 2nd stringency from High (1st value of cell)): 19%; Relative abundance of motif in selection output (Biotinylated hPK; 3rd stringency from High (2nd value of cell)): 13%; Relative abundance of motif in selection output (Biotinylated hPK; 4th stringency from High (3rd value of cell)): 22%; Relative abundance of motif in selection output (Biotinylated hPK; 5th stringency from High (4th value of cell)): 6%; Relative abundance of motif in selection output (Biotinylated hPK; stringency High): 17%; Relative abundance of motif in selection output (Biotinylated hPK; stringency LOW): 4%
11 | SEQ ID NO: 140 (CHWPARCMHQDLC; Synthetic sequence Kallikrein binder containing a WPAR motif) |  |  | 27 | 
12 | SEQ ID NO: 136 (CTWPARCLHQDLC; Synthetic sequence Kallikrein binder containing a WPAR motif) |  |  | 23 | 
13 | SEQ ID NO: 157 (CLWPARCLTTELC; Synthetic sequence Kallikrein binder containing a WPAR motif) |  |  | 44 | 
14 | SEQ ID NO: 163 (CPWPARCLHTDLC; Synthetic sequence Kallikrein binder containing a WPAR motif) |  |  | 50 | 
15 | SEQ ID NO: 124 (CHWPARCTHQELC; Synthetic sequence Kallikrein binder containing a WPAR motif) |  |  | 11 | 
16 | SEQ ID NO: 134 (CRWPARCTHQDLC; Synthetic sequence Kallikrein binder containing a WPAR motif) |  |  | 21 | 
17 | SEQ ID NO: 135 (CQWPARCMHQELC; Synthetic sequence Kallikrein binder containing a WPAR motif) |  |  | 22 | 
18 | SEQ ID NO: 150 (CAWPARCLHADMC; Synthetic sequence Kallikrein binder containing a WPAR motif) |  |  | 37 | 
